Experimental data as given in patent US20240376151A1, “STAPLED PEPTIDES AND METHODS THEREOF” (FOG PHARMACEUTICALS, INC., priority 2022, published 2024).

Target: T1, RNF31 PUB domain (Homo sapiens, UniProt Q96EP0)
T1 construct: MBP-TEV (N, cleaved yes); made in house; host or cells: E. coli BL21 (DE3) pLysS
T1 sequence (Q96EP0 1-179): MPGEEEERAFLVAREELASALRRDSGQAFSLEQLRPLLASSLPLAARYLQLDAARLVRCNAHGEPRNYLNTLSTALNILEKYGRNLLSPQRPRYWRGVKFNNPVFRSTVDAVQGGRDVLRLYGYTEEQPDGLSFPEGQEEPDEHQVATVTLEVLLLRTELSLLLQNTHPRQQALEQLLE
Experiment: Phage Library Screening with NGS, RNF31 PUB domain
Format: binding
Conditions: for Phage library screen NGS readout, Target Concentration 10 / Phage library screen NGS readout, Target Concentration 30 / Phage library screen NGS readout, Target Concentration 100 / Phage library screen NGS readout, Target Concentration 300 / Phage library screen NGS readout, Target Concentration 1000: RNF31 PUB domain clusters C41-C45; for Phage library screen NGS readout, BLANK: clusters C41-C45

[1] = target concentration 1000, first column
[2] = target concentration 1000, second column

Row | Sequence | Phage library screen NGS readout, Target Concentration 10 | Phage library screen NGS readout, Target Concentration 30 | Phage library screen NGS readout, Target Concentration 100 | Phage library screen NGS readout, Target Concentration 300 | Phage library screen NGS readout, Target Concentration 1000 [1] | Phage library screen NGS readout, Target Concentration 1000 [2] | Phage library screen NGS readout, BLANK (column 1 of 5) | Phage library screen NGS readout, BLANK (column 2 of 5) | Phage library screen NGS readout, BLANK (column 3 of 5) | Phage library screen NGS readout, BLANK (column 4 of 5) | Phage library screen NGS readout, BLANK (column 5 of 5)
1 | DPAADDCEWAALYCSFH | 2 | 0 | 0 | 3 | 3 | 8 | 2 | 9 | 0 | 2 | 3
2 | DPAADQCDIAAFVCSTY | 0 | 0 | 0 | 4 | 26 | 17 | 0 | 0 | 0 | 0 | 0
3 | DPAAEDCHIAAMVCMTY | 0 | 4 | 0 | 12 | 46 | 67 | 0 | 0 | 0 | 0 | 0
4 | DPAAWECHIAAFVCSTY | 1 | 1 | 0 | 2 | 8 | 7 | 0 | 0 | 0 | 0 | 0
5 | DPADWDCMYAAQDCFED | 0 | 0 | 1 | 1 | 11 | 1 | 0 | 0 | 0 | 0 | 0
6 | DPAEDECDWAALYCDMQ | 0 | 0 | 0 | 1 | 7 | 6 | 0 | 0 | 0 | 0 | 0
7 | DPAEDECQDAAILCSYN | 1 | 3 | 0 | 7 | 19 | 6 | 1 | 0 | 0 | 0 | 1
8 | DPAEDWCMYAAWDCQME | 1 | 0 | 0 | 4 | 22 | 10 | 0 | 0 | 0 | 0 | 0
9 | DPAEEYCLEAAILCTYD | 0 | 0 | 1 | 14 | 44 | 32 | 0 | 0 | 0 | 0 | 0
10 | DPAEQFCLYAAYDCYSE | 2 | 0 | 0 | 2 | 18 | 9 | 1 | 3 | 1 | 0 | 0
11 | DPAEWDCLYAAFDCFAN | 2 | 2 | 0 | 3 | 15 | 7 | 0 | 0 | 0 | 0 | 0
